What is called Kd is the equilibrium constant for the complex coming apart. The term stoichiometry N denotes a count of units in the complex or per binding partner.

For experiment [1], the target named is TD4, minimal TACC domain (TD) fragment of XTACC3 (Xenopus). The experiment is described as follows: SEC-MALS; TD4 with saturating concentrations of pCt; Superdex 200 10/300 GL, 20 mM Tris/HCl, 150 mM NaCl, 0.25 mM TCEP, pH 8.0. On the technique in general: In gel filtration, larger molecules generally elute earlier.
For experiment [2] the target is unchanged. Briefly: SPR; TD4 (50 μg/ml) amine-coupled to a CM5 chip, peptides pCt or pCt_KD as analytes 10–250 μM; BIAcore X100, 20 °C, HBS (100 mM HEPES, 150 mM NaCl, 0.05% P20, pH 7.4); steady-state fit, single-site model. On the technique in general: SPR reads the build-up and loss of mass on a sensor chip optically.
For experiment [3] the target is unchanged. The experiment is described as follows: ITC; TD4 (10–20 μM) in the cell, peptide (400–500 μM) in the syringe; 25 °C; 20 mM HEPES pH 7.5, 150 mM NaCl, 0.25 mM TCEP; one-site model. (Isothermal titration calorimetry measures the heat released or taken up as one component is titrated into another.)

B1: pCt, synthetic peptide of XMAP-Ct residues 46-61 (peptide)
peptide: STNIDDLKKRLERIKS
In turn, B1 showed a stoichiometry N (pCt per TD4 dimer) in experiment [1] of 4. The molecule further came in with a Kd in experiment [2] of 30 µM. Also, in experiment [3], the Kd came out at 11 µM and the stoichiometry N was 0.5 TD4:pCt.

For the origin of these results see publication PMC4200520.
